Source: patent publication US12466859B2, “Desmoglein 2 (DSG2) binding proteins and uses therefor” (UNIVERSITY OF WASHINGTON THROUGH ITS CENTER FOR …, priority 2013, dated 2025)
“Also recorded” adds a separate entry of the source.

Legend:
Format in all cases: in vivo, hDSG2 transgenic mice
TC1-hDSG2 tumors = assay: PLD therapy with repeated injection in immunocompetent mice with TC1-hDSG2 tumors; settings: 2 mg/kg i.v. one hour before PLD 1.5 mg/kg; 3rd and 4th cycle, serum antibodies detectable
Method: (§1) FIG. 11A-11C. Pharmacokinetics, toxicity, and immunogenicity of JO-4. FIG. 11A) Serum clearance of JO-1 and JO-4. hDSG2 transgenic mice with subcutaneous TC1-hDSG2 tumors (˜600 mm^3) were intravenously injected with JO-1 or JO-4 (2 mg/kg) and serum samples were analyzed for by ELISA. N=3. Note that the y-axis has a log scale. FIG. 11B1) Lymphocyte and FIG. 11B2) platelet counts in hDSG2/TC1-hDSG2 transgenic mice after JO-1 or JO-4 injection. N=3. FIG. 11C) Therapy studies in immunocompetent hDSG2 transgenic mice with TC1-hDSG2 tumors. When tumors reached a volume of ˜80 mm^3, JO-1 or JO-4 (2 mg/kg) or PBS was injected intravenously followed one hour later by PLD/Doxil (i.v. 1.5 mg/kg). Treatment was repeated as indicated by arrows. Tumors were then allowed to re-grow for about two weeks. From day 15 on serum anti-JO-1/J)—4 antibodies were detectable by ELISA. Two more treatment cycles were performed at day 28 and day 35. […] The difference between JO-1/PLD vs JO-4/PLD is significant from day 31 on. N=10.
A549, MDA-MB-231, and ovc316 xenograft tumors were established by injection of the corresponding tumor cells into the mammary fat pad (1:1 with Matrigel) of CB17 mice. […] Tumor volumes were measured three times a week. […]
JO-1 and JO-4 are virus-derived proteins and immunogenic. In immunocompetent mice, serum IgG antibodies against these proteins can be detected by ELISA two weeks after injection (5). […]

[1] = Blood chemistry and blood cell counts after i.v. injection; settings: for Blood chemistry / Lymphocyte and platelet number after injection: after i.v. injection, 2 mg/kg
Method: as §1
Two of the affinity enhanced version of JO-1, Y293D and V250F were analyzed in in vivo assay. We called these mutants JO-2 and JO-4, respectively. The first study was performed in a xenograft model derived from A549 cells similar to the study described for FIG. 5B. […] Additional studies were performed in xenograft tumors derived from ovc316 cells (30, 32). Ovc316 cells are Her2/neu positive epithelial tumor cells derived from an ovarian cancer biopsy. These cells can undergo EMT and the reverse process, mesenchymal-to-epithelial-transition (MET), under specific conditions in vitro and in vivo. A subfraction of ovc316 cells that is positive for Nanog, CD133, and E-cadherin is enriched for cancer stem cells, i.e. self-renewing cells with pluripotent potential and tumor forming ability (30). Ovc316 cells therefore closely model the heterogeneity and plasticity seen in tumors in situ. […] Finally, we tested JO-4 in a model for triple-negative breast cancer (TNBC). TNBC is characterized by a lack or minimal expression of estrogen receptor (ER), progesterone receptor (PR) and the absence of Her2/neu overexpression. TNBC accounts for 15% of all breast cancers. Overall survival is poor compared with that in patients who have other phenotypes. A characteristic feature of TNBC is high levels of DSG2 and epithelial junctions. Promising clinical results in the treatment of TNBS have been achieved with nanoparticle, albumin-conjugated paclitaxel (nab-paclitaxel/Abraxane™) alone or in combination with the EGFR-targeting mAb cetuximab/Erbitux™ (38). […] Because of its therapeutic relevance, we further studied JO-4 in an adequate mouse tumor model. […] These mice were subcutaneously implanted with syngeneic TC1-hDSG tumors. When tumors reached a volume of ˜600 mm^3, JO-1 or JO-4 was intravenously injected for safety and efficacy studies. […] After one hour post-injection JO-1 and JO-4 concentration reached a plateau with −100 ng/ml. We also analyzed hematological parameters after i.v. JO-1 and JO-4 injection.

[2] = Serum clearance of JO-1 and JO-4 by ELISA; settings: 2 mg/kg i.v.; mice with TC1-hDSG2 tumors
Method: as §1
Two of the affinity enhanced version of JO-1, Y293D and V250F were analyzed in in vivo assay. We called these mutants JO-2 and JO-4, respectively. The first study was performed in a xenograft model derived from A549 cells similar to the study described for FIG. 5B. […] We also analyzed hematological parameters after i.v. JO-1 and JO-4 injection.

B1: JO-1: dimeric protein that contains the wild-type Ad3 fiber knob and a self-dimerization domain (SEQ ID NO:27) (protein, listed as Homo sapiens)
chain: MKVSALKEKVSALKEKVSALKEKVSALKEKVSALKEGSGGGSGGGSGGGSNSIALKNNTLWTGPKPEANCIIEYGKQNPDSKLTLILVKNGGIVNGYVTLMGASDYVNTLFKNKNVSINVELYFDATGHILPDSSSLKTDLELKYKQTADFSARGFMPSTTAYPFVLPNAGTHNENYIFGQCYYKASDGALFPLEVTVMLNKRLPDSRTSYVMTFLWSLNAGLAPETTQATLITSPFTFSYIREDD
modifications: dimer
- Enhancing effect on PLD therapy after repeated treatment cycles (TC1-hDSG2 tumors): enhancing effect; also recorded: continued to be effective
- Blood chemistry [1]: did not show abnormal changes
- Lymphocyte and platelet number after injection [1]: decreased early after injection
- Decline of serum concentration within an hour after injection [2]: declined more than one order of magnitude

B2: JO-4 (protein)
chain: MKVSALKEKVSALKEKVSALKEKVSALKEKVSALKEGSGGGSGGGSGGGSNSIALKNNTLWTGPKPEANCIIEYGKQNPDSKLTLILVKNGGIVNGYVTLMGASDYVNTLFKNKNVSINVELYFDATGHILPDSSSLKTDLELKYKQTADFSARGFMPSTTAYPFVLPNAGTHNENFIFGQCYYKASDGALFPLEVTVMLNKRLPDSRTSYVMTFLWSLNAGLAPETTQATLITSPFTFSYIREDD
- Enhancing effect on PLD therapy after repeated treatment cycles (TC1-hDSG2 tumors): significantly stronger; also recorded: continued to be effective
- Lymphocyte and platelet counts at nadir compared with JO-1 ([1]; 24 hours p.i., p<0.01): significantly lower numbers
- Blood chemistry [1]: did not show abnormal changes
- Lymphocyte and platelet number after injection [1]: decreased early after injection; also recorded: transient reduction
- Return of lymphocyte and platelet counts to normal levels ([1]; compared with JO-1 treated animals): faster
- Decline of serum concentration within an hour after injection [2]: declined more than one order of magnitude; also recorded: significantly greater; also recorded: rapidly decrease
